The nature of data set [1]: Substrate specificity of NLpoly 5P and 11S with NLpep79 (Example 97). Type of data set: biochemical. The protocol:
E. coli clarified lysates were prepared for NLpoly 5P or 11S as described previously. The NLpoly lysates were then serially diluted in steps of 10-fold into PBS+0.1% Prionex.

The nature of data set [2]: Luminescence of NLpoly without NLpep, E. coli clarified lysate (Example 57). Type of data set: biochemical. The following applies: E. coli clarified lysate + NanoGlo+Fz. On the procedure:
50 μL of each lysate and 50 uL NanoGlo+Fz were mixed and incubated for 5 min RT. Luminescence was measured on GloMax® Multi+ with 0.5 sec integration.

For another data set, the system named is NLpep78-HT or NLpep79-HT. As to the kind of experiment: Luminescence of NLpoly variants without NLpep or with NLpep78-HT / NLpep79-HT (Example 93). Conditions: E. coli expression culture. Type of data set: biochemical.
Data set [3] has as its system wt Oplophorus 157-169 peptide. As to the kind of experiment: Relative specific activity in HEK293T lysates (Example 143). Type of data set: biochemical. The following applies: averages of Vmax and Bmax normalized to NanoLuc. On the procedure: Each clone was inserted into pFN21A HaloTag® CMV Flexi® Vector (Promega G2821), and lysates were prepared as follows: 3 ml HEK293T cells that have been diluted to a concentration of 200,000 cells/ml (600,000 cells total) were plated into each well of a 6-well plate and grown overnight at 37° C. in a CO2 incubator. The following day transfection complexes of each DNA were prepared by combining […] of DNA, Opti-MEM® (Life Technologies 11058-021) to a final volume of 310 μl and 20 μl of FuGENE® HD (Promega E231a). The transfection complexes were incubated for 20 minutes and then 150 μl of each complex added in duplicate to cells. The cells were grown overnight 37° C. in a CO2 incubator. The following day, the cells were washed cells with DPBS (Life Technologies 14190-144), and 1 ml fresh DPBS added. Cells were frozen to lyse and then thawed for testing. Duplicate transfection reactions lysates were combined.
In order to compare the specific activities of Nluc (full length enzyme) to wt Oplophorusl-156 and NLpoly11S in combination with wt Oplophorus 157-169 peptide (binary proteins), substrate titrations were run for all of the samples, but for the binary samples substrate titrations were run at multiple peptide concentrations. Using this format, it was possible to calculate a Vmax value for Nluc and both Vmax and Bmax values for NLpoly11S and wt Oplophorus 1-156. Three separate experiments were run using this format and Vmax and Bmax values were normalized to the Vmax of NanoLuc. Relative specific activities (calculated as averages of Vmax and Bmax) are normalized to NanoLuc.

In data set [4] the target is T1, […] peptide (Oplophorus gracilirostris, UniProt Q9GV45). As to the kind of experiment: Non-luminescent polypeptide mutant luminescence after complementation with peptide (Example 5, Table 4). Conditions: E. coli culture of polypeptide mutant + 1x peptide solution; NANOGLO reagent.
Data set [5] has as its target T1, […] peptide. Described as above. The following applies: E. coli culture of polypeptide mutant + 1x peptide solution; NANOGLO reagent. The source holds these as a separate data set.

These results are taken from US12366572B2, “Activation of bioluminescence by structural complementation” (Promega Corporation, priority 2013, dated 2025).

B1: 11S: evolved non-luminescent polypeptide variant 11S (12S-51) (protein)
chain: MVFTLEDFVGDWEQTAAYNLDQVLEQGGVSSLLQNLAVSVTPIQRIVRSGENALKIDIHVIIPYEGLSADQMAQIEEVFKVVYPVDDHHFKVILPYGTLVIDGVTPNMLNYFGRPYEGIAVFDGKKITVTGTLWNGNKIIDERLITPDGSMLFRVTINS
For the molecule B1, the “Substrate specificity for furimazine” value in data set [1] was “superior specificity for furimazine than 5P”. In data set [2], the “Luminescence in the absence of NLpep, higher than WT NLpoly” value is listed as around 500 fold. The “Luminescence without NLpep or with NLpep78 or NLpep79” value with NLpep78-HT or NLpep79-HT is “improved luminescence over the other variants”. In addition, in data set [3], the “Relative specific activity (*with wt 157-169 peptide)” value was 0.18*.

B2: L149M (protein)
chain: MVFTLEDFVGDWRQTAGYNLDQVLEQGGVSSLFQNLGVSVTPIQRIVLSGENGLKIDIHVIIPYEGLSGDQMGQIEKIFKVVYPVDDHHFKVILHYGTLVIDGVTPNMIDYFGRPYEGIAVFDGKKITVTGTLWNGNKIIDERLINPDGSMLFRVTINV
Turning to B2, the entries for the “Luminescence with […]” value in data set […] peptide [4] and in data set […] peptide [5] were 2.89 RLU(mutant)/RLU(WT) and 2.16 RLU(mutant)/RLU(WT), respectively.
